Drawing on US20190023739A1 (TOKUSHIMA UNIVERSITY, published 2019), this text covers Kd for one molecule.

One may read the Kd as the concentration at which binding is half-saturated.

The experiment addresses T1, His-tagged recombinant PHB2 (UniProt Q99623 1-299, limits assumed).
T1 construct: also called prohibitin 2; REA; not shown: His tag
Kind of experiment: surface plasmon resonance (BiAcore) interaction analysis. (In SPR one partner is held on a chip, and binding of the other changes the refractive index at the surface.)

T1 sequence (Q99623 whole entry): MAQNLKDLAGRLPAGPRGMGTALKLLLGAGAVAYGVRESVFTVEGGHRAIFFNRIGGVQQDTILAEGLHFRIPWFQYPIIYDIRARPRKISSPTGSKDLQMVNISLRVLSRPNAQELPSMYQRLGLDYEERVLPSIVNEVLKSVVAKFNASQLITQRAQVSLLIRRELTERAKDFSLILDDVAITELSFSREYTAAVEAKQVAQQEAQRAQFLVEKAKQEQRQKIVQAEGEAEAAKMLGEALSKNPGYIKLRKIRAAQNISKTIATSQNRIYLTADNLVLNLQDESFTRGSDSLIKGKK

B1: 11R-ERAP (11R-GGG-QMLSDLTLQLRQR) (peptide)
peptide: RRRRRRRRRRRGGGQMLSDLTLQLRQR
notes: Unstapled control peptide, synthesized as in Yoshimaru et al. 2013; also called dominant negative peptide
With B1, the Kd is 12.8 µM.
